The results in this text go back to PMC5563082, “Structural Mechanism for Modulation of Synaptic Neuroligin-Neurexin Signaling by MDGA Proteins” (Neuron, 2017).

Experiment [1] deals with T1, human MDGA1 extracellular domain (MDGA1_(ECTO); Gln19-Lys925) (human, UniProt Q8NFP4-1 19-925).
T1 construct: human MAM domain-containing glycosylphosphatidylinositol anchor protein 1, Gln19-Lys925; Not deglycosylated; also called human MDGA1_(ECTO); source: HEK293T, transient transfection, purified (IMAC, SEC)
T1 sequence (looked up): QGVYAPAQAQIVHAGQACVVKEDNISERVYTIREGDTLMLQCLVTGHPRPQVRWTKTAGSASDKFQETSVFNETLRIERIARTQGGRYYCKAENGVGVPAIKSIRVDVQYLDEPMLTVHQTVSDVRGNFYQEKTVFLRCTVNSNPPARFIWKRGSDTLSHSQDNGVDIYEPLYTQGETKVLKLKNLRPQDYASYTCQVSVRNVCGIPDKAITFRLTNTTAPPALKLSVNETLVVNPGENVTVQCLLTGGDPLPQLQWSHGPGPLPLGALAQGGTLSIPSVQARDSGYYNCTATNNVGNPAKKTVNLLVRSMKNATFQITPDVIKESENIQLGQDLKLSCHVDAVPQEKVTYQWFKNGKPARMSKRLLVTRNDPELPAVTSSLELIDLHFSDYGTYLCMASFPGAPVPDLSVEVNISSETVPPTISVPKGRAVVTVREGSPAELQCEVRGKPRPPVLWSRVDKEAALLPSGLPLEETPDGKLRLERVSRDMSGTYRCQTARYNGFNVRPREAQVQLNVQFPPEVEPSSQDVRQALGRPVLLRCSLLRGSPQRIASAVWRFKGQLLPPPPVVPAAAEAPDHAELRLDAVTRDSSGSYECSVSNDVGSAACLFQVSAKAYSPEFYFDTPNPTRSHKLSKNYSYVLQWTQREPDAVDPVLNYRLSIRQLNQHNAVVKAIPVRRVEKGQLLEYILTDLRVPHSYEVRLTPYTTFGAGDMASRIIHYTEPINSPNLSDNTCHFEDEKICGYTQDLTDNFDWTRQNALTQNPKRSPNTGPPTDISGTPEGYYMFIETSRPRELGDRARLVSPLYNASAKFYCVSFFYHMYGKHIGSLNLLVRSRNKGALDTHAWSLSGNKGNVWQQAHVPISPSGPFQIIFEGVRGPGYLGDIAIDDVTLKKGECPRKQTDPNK
Briefly: SPR; biotinylated NL_(ECTO)-Avitag variants captured from dialysed conditioned medium on streptavidin CM5 chip (500 RU; 550 RU for the ΔSite series; 1000 RU for NL3 and NL3 Arg451Cys in the R451C series); β-NRX1_(LNS6)(±4), MDGA1_(ECTO), MDGA2_(ECTO) injected, 15 concentrations, two-fold series from 50 μM; TBS-CTB (10 mM Tris pH 7.4, 150 mM NaCl, 3 mM CaCl2, 0.005% Tween-20, 1.0 g/L BSA); equilibrium analysis, 1:1 …. The conditions noted are these: both partners purified. (In general: SPR reads the build-up and loss of mass on a sensor chip optically.)

Experiment [2] concerns the target T2, human MDGA2 extracellular domain (MDGA2_(ECTO); Gln21-Lys927) (human, UniProt Q7Z553 21-927).
T2 construct: human MAM domain-containing glycosylphosphatidylinositol anchor protein 2, Gln21-Lys927; Not deglycosylated; source: HEK293T, transient transfection, purified (IMAC, SEC)
T2 sequence (looked up): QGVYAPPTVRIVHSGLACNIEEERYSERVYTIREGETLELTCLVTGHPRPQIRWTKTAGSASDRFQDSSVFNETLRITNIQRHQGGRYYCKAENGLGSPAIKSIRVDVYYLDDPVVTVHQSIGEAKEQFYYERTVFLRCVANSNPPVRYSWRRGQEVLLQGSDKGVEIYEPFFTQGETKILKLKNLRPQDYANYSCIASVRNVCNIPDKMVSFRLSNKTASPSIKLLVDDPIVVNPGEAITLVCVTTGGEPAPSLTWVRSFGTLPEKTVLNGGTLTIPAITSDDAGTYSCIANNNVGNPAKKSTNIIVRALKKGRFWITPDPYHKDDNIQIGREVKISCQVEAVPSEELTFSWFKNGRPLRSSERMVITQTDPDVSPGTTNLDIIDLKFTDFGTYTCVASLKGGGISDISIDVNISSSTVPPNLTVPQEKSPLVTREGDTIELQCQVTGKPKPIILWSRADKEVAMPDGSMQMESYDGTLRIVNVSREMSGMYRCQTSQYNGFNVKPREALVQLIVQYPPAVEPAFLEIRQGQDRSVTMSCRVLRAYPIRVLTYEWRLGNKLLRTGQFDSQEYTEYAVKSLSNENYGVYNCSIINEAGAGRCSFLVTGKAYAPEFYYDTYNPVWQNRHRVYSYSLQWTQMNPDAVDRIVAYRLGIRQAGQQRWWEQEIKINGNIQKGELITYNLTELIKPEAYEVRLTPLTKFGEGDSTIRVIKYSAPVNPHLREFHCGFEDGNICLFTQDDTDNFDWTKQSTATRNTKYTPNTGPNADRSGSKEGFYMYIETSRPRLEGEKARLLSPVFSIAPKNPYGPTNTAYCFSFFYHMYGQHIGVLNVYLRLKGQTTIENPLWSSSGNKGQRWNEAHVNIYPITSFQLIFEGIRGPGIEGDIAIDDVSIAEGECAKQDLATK
The description is as above. The conditions noted are these: both partners purified.

As a reminder, the Kd is a measure of binding affinity in units of concentration.

B1: human NL2(+A)_(ECTO), immobilised for SPR (domain or fragment, UniProt Q8NFZ4 38-612, looked up)
chain: EERFPVVNTAYGRVRGVRRELNNEILGPVVQFLGVPYATPPLGARRFQPPEAPASWPGVRNATTLPPACPQNLHGALPAIMLPVWFTDNLEAAATYVQNQSEDCLYLNLYVPTEDGPLTKKRDEATLNPPDTDIRDPGKKPVMLFLHGGSYMEGTGNMFDGSVLAAYGNVIVATLNYRLGVLGFLSTGDQAAKGNYGLLDQIQALRWLSENIAHFGGDPERITIFGSGAGASCVNLLILSHHSEGLFQKAIAQSGTAISSWSVNYQPLKYTRLLAAKVGCDREDSAEAVECLRRKPSRELVDQDVQPARYHIAFGPVVDGDVVPDDPEILMQQGEFLNYDMLIGVNQGEGLKFVEDSAESEDGVSASAFDFTVSNFVDNLYGYPEGKDVLRETIKFMYTDWADRDNGEMRRKTLLALFTDHQWVAPAVATAKLHADYQSPVYFYTFYHHCQAEGRPEWADAAHGDELPYVFGVPMVGATDLFPCNFSKNDVMLSAVVMTYWTNFAKTGDPNQPVPQDTKFIHTKPNRFEEVVWSKFNSKEKQYLHIGLKPRVRDNYRANKVAFWLELVPHLHNLH
modifications: biotin on the Avitag (in vivo biotinylation by BirA)
notes: source: HEK293T, co-transfected with ER-resident BirA; dialysed conditioned medium, captured on streptavidin chip
For B1, the binding result in experiment [1] and in experiment [2] was “binds” each time.

B2: human NL4_(ECTO) (NL4(X); Gln42-Glu602), immobilised for SPR (domain or fragment)
chain: QAQYPVVNTNYGKIRGLRTPLPNEILGPVEQYLGVPYASPPTGERRFQPPEPPSSWTGIRNTTQFAAVCPQHLDERSLLHDMLPIWFTANLDTLMTYVQDQNEDCLYLNIYVPTEDDIHDQNSKKPVMVYIHGGSYMEGTGNMIDGSILASYGNVIVITINYRLGILGFLSTGDQAAKGNYGLLDQIQALRWIEENVGAFGGDPKRVTIFGSGAGASCVSLLTLSHYSEGLFQKAIIQSGTALSSWAVNYQPAKYTRILADKVGCNMLDTTDMVECLRNKNYKELIQQTITPATYHIAFGPVIDGDVIPDDPQILMEQGEFLNYDIMLGVNQGEGLKFVDGIVDNEDGVTPNDFDFSVSNFVDNLYGYPEGKDTLRETIKFMYTDWADKENPETRRKTLVALFTDHQWVAPAVATADLHAQYGSPTYFYAFYHHCQSEMKPSWADSAHGDEVPYVFGIPMIGPTELFSCNFSKNDVMLSAVVMTYWTNFAKTGDPNQPVPQDTKFIHTKPNRFEEVAWSKYNPKDQLYLHIGLKPRVRDHYRATKVAFWLELVPHLHNLNE
modifications: biotin on the Avitag (in vivo biotinylation by BirA)
notes: human neuroligin-4 (X-linked), Gln42-Glu602; source: HEK293T, co-transfected with ER-resident BirA; dialysed conditioned medium, captured on streptavidin chip
Regarding B2, the binding result in experiment [1] and in experiment [2] was “binds” each time.

B3: human NL2(–A)_(ECTO) (Glu38-His612), immobilised for SPR (domain or fragment, UniProt Q8NFZ4 38-612, looked up)
chain: EERFPVVNTAYGRVRGVRRELNNEILGPVVQFLGVPYATPPLGARRFQPPEAPASWPGVRNATTLPPACPQNLHGALPAIMLPVWFTDNLEAAATYVQNQSEDCLYLNLYVPTEDDIRDPGKKPVMLFLHGGSYMEGTGNMFDGSVLAAYGNVIVATLNYRLGVLGFLSTGDQAAKGNYGLLDQIQALRWLSENIAHFGGDPERITIFGSGAGASCVNLLILSHHSEGLFQKAIAQSGTAISSWSVNYQPLKYTRLLAAKVGCDREDSAEAVECLRRKPSRELVDQDVQPARYHIAFGPVVDGDVVPDDPEILMQQGEFLNYDMLIGVNQGEGLKFVEDSAESEDGVSASAFDFTVSNFVDNLYGYPEGKDVLRETIKFMYTDWADRDNGEMRRKTLLALFTDHQWVAPAVATAKLHADYQSPVYFYTFYHHCQAEGRPEWADAAHGDELPYVFGVPMVGATDLFPCNFSKNDVMLSAVVMTYWTNFAKTGDPNQPVPQDTKFIHTKPNRFEEVVWSKFNSKEKQYLHIGLKPRVRDNYRANKVAFWLELVPHLHNLH
modifications: biotin on the Avitag (in vivo biotinylation by BirA)
notes: also called NL2_(ECTO); source: HEK293T, co-transfected with ER-resident BirA; dialysed conditioned medium, captured on streptavidin chip
B3: the Kd in experiment [1] is ~2000 nM; in experiment [2], ~1000 nM.

B4: human NL5_(ECTO) (NL4(Y); Gln42-Glu602), immobilised for SPR (domain or fragment)
chain: QAQYPVVNTNYGKIQGLRTPLPSEILGPVEQYLGVPYASPPTGERRFQPPESPSSWTGIRNATQFSAVCPQHLDERFLLHDMLPIWFTTSLDTLMTYVQDQNEDCLYLNIYVPMEDDIHEQNSKKPVMVYIHGGSYMEGTGNMIDGSILASYGNVIVITINYRLGILGFLSTGDQAAKGNYGLLDQIQALRWIEENVGAFGGDPKRVTIFGSGAGASCVSLLTLSHYSEGLFQKAIIQSGTALSSWAVNYQPAKYTRILADKVGCNMLDTTDMVECLKNKNYKELIQQTITPATYHIAFGPVIDGDVIPDDPQILMEQGEFLNYDIMLGVNQGEGLKFVDGIVDNEDGVTPNDFDFSVSNFVDNLYGYPEGKDTLRETIKFMYTDWADKENPETRRKTLVALFTDHQWVAPAVATADLHAQYGSPTYFYAFYHHCQSEMKPSWADSAHGDEVPYVFGIPMIGPTELFSCNFSKNDVMLSAVVMTYWTNFAKTGDPNQPVPQDTKFIHTKPNRFEEVAWSKYNPKDQLYLHIGLKPRVRDHYRATKVAFWLELVPHLHNLNE
modifications: biotin on the Avitag (in vivo biotinylation by BirA)
notes: human neuroligin-5 (neuroligin-4, Y-linked), Gln42-Glu602; source: HEK293T, co-transfected with ER-resident BirA; dialysed conditioned medium, captured on streptavidin chip
For B4, the binding result in experiment [1] and in experiment [2] was “binds” each time.

B5: human NL3(–A)_(ECTO) (Gln38-Asp636), immobilised for SPR (domain or fragment, UniProt Q9NZ94-1 38-636, looked up)
chain: QAPAPTVNTHFGKLRGARVPLPSEILGPVDQYLGVPYAAPPIGEKRFLPPEPPPSWSGIRNATHFPPVCPQNIHTAVPEVMLPVWFTANLDIVATYIQEPNEDCLYLNVYVPTEDDIRDSGAKPVMVYIHGGSYMEGTGNMIDGSILASYGNVIVITLNYRVGVLGFLSTGDQAAKGNYGLLDQIQALRWVSENIAFFGGDPRRITVFGSGIGASCVSLLTLSHHSEGLFQRAIIQSGSALSSWAVNYQPVKYTSLLADKVGCNVLDTVDMVDCLRQKSAKELVEQDIQPARYHVAFGPVIDGDVIPDDPEILMEQGEFLNYDIMLGVNQGEGLKFVEGVVDPEDGVSGTDFDYSVSNFVDNLYGYPEGKDTLRETIKFMYTDWADRDNPETRRKTLVALFTDHQWVEPSVVTADLHARYGSPTYFYAFYHHCQSLMKPAWSDAAHGDEVPYVFGVPMVGPTDLFPCNFSKNDVMLSAVVMTYWTNFAKTGDPNKPVPQDTKFIHTKANRFEEVAWSKYNPRDQLYLHIGLKPRVRDHYRATKVAFWKHLVPHLYNLHD
modifications: biotin on the Avitag (in vivo biotinylation by BirA)
notes: also called NL3_(ECTO); source: HEK293T, co-transfected with ER-resident BirA; dialysed conditioned medium, captured on streptavidin chip
As to B5, the binding result in experiment [1] and in experiment [2] was “binds” each time.

B6: human NL3(+A1)_(ECTO), immobilised for SPR (domain or fragment, UniProt Q9NZ94-1 38-636, looked up)
chain: QAPAPTVNTHFGKLRGARVPLPSEILGPVDQYLGVPYAAPPIGEKRFLPPEPPPSWSGIRNATHFPPVCPQNIHTAVPEVMLPVWFTANLDIVATYIQEPNEDCLYLNVYVPTEDVKRISKECARKPNKKICRKGDIRDSGAKPVMVYIHGGSYMEGTGNMIDGSILASYGNVIVITLNYRVGVLGFLSTGDQAAKGNYGLLDQIQALRWVSENIAFFGGDPRRITVFGSGIGASCVSLLTLSHHSEGLFQRAIIQSGSALSSWAVNYQPVKYTSLLADKVGCNVLDTVDMVDCLRQKSAKELVEQDIQPARYHVAFGPVIDGDVIPDDPEILMEQGEFLNYDIMLGVNQGEGLKFVEGVVDPEDGVSGTDFDYSVSNFVDNLYGYPEGKDTLRETIKFMYTDWADRDNPETRRKTLVALFTDHQWVEPSVVTADLHARYGSPTYFYAFYHHCQSLMKPAWSDAAHGDEVPYVFGVPMVGPTDLFPCNFSKNDVMLSAVVMTYWTNFAKTGDPNKPVPQDTKFIHTKANRFEEVAWSKYNPRDQLYLHIGLKPRVRDHYRATKVAFWKHLVPHLYNLHD
modifications: biotin on the Avitag (in vivo biotinylation by BirA)
notes: as for B1
As for B6, the binding result in experiment [1] and in experiment [2] was “binds” in each case.
